Assay results taken from a protein production outcome set (Wang et al. 2014).

Test: label from the status in PepcDB records

| Sequence | protein production |
| --- | --- |
| MRVFFSTLAGLALALAAGGAVASGLGDADKGREVFRQCAFCHAVGEGAENGIGPHLNGVFGRAAGRIEGVQYSKSMIRMGNDGLIWTAQTLDAYIENPRALVSKTRMSFRGIKNEQERSDLMAYLRRYSDDPGNIPEAEPTATGTDHDLDPVILAIQGDPEYGEYLASECKTCHQTSGANDGIPGITQWPTEDFVVAMHAYKRKLRPHPVMQMMAGRLSNDEIAALAAYFQDLE | failed |
| GIKDSPVNKVEPNDTLEKVFVSVTKYPDEKRLKGLSKQLDWSVRKIQCWFRHRRNQDKP | not failed |
| MNQNQNKKTKIVALSMMNSQTSGNPSRGTTKFESYTFDYWQYIDTLVYWGGSSGEGIIVTPSADVIDEAHSNGVPVLGTIFLPPKEYGGKVDWVKTMLKKDEQGQYPFASQMVKVAKTYGFEGWFINEETQGLNADDAANMKALIQQVKKEDSSLQIMWYDAMTKDGKVDWQNQLNDQNATFVQDKAADAMFLNFWWTQNNLADQKLLEKSNLYAKNHNIDPYNIYAGIDVQAKDVQTPVKWNLLEKGNQATQTSIGLYAASATYTNASNWDDFQNRESAFWVNQKADPRQVDHSVNESWTGLSKYVLEKSAISGNEFNTNFNLGNGYNYFKAGQKISEMDWNDRSLAGILPSYRWIIDNEGKNKISPSFDFANAYNGGNSLKFMAEHLDAGKSSNITLFASDLKIAMGAKFSVSMRSDQALKVSAILELANGQKVSIAGDKSLTENWSKLEHHHHHH | not failed |
| MIKMIVVLRLGHRPERDKRVTTHVALTARAFGADGIIIASEEDEKVKESVEDVVKRWGGPFFIEFNRNWRKVMKEFTGVKVHLTMYGLHVDDVIEELKEKLKKGEDFMIIVGAEKVPREVYELADYNVAIGNQPHSEVAALAVLLDRLLEGKGLKKEFKGAKIKIVPQARGKKVVEVQGYAEQDKAEGKATPGKNWENSGFTGDNP | not failed |
| MRTYLVLFSILLVFLAGCISTESKVEDTTTAVTFVSVTDFTGETSTINSPVERVVSNYGLIPPIIYLFGEGDKIVAGRGVMGADEFIDAVDPEFKTRSKDIKSDNVEEIKSLNPDVIFAPSWGSQQGQYPQLKSLGIPVVFIDIETASNYYKTIEMMGEVFQKEAYAQELIDYYNQSTNDVLKRTASISENEKPRVLFLVYDQRKNSYWTPGGEFYQNNLITMAGGKTVSSDLPTGKAQINVEQAASWNPDVIITSAHTMEYPSTKVKEDVLTDEGWKEINAVKSGNVYAMPFDGESWDTLGSKYVLGLYWTAKTLHPDMYTDVDILNLTSSEYERFFNVSIDEVTLVGDNIE | failed |
| TIDPKAQKAAWDGLTDLKGARGAVVALDPQTGKVLAMVSAPSYDPSAFAGSTFKESDRFVELDKKKNKPLANRALRETYPPGSTFKILTAAAALEHGIVTDVDARTDAVSPYPLPQSTNKIGSEAGDAVCNKASMKTAMQHSCNNVFLDAASKLGQDKMRETAEKFGFNEDVYSDDFGDLLATKSLYPEDLDKPGTALTGMGQGSLTSTPMQMALVTAGIANDGKVMQPYVVDEVKGPDLDTLEKTEPAVMSEAVSAETAQKVQEMMEFTAKEGSARRAQIDGITVGGKTGTAQRGVDVNDEVPYGWFVSYGKKDDGSSVAVAVFIDPTDMDISRADISGGGLGAPIAKSVMKAVLK | failed |
| MILTSTEGQEGLPRYFPQVMKMLARMQAGRLDIALPDGRVFRSEGPEPGPVARVDIHDTDVFARLIREGELGFSDAYLEQDWSTPDLRAFMDLVHQGEETVYDGFTGQFLARAYERLRFWLQRNHRKQAKKNISYHYDLGNDFYALWLDETMTYSSALFETGQESLEKAQEAKYASLLDEMGAQPGDHILEIGCGWGGFAEYAARQRGMRVTGLTISQEQFKFARERIEKAGLSDQVHFKLQDYRDETGSYDGIASIEMFEAVGEKYWPVYFDTVRARLKPGKRATLQIITVADRRWEIYRNGVDFIQKYIFPGGMLPAPGILREQVARAGLEFVQSREFGKSYDLTLRRWYETFNDKWDQVAELGFDDRFRRMWNFYLTSCGAAFDTGTCDVTQMTVARPNHS | failed |
| MTHVNIMAGGPQACLPAAWEQLPGVWIGVDRGTLRLVRAGIHPELAVGDFDSLTLEELRLVRGHVQKLQQVPSEKDDTDTELAVKAALQASSSGDVTLVGGTGGRLDHFLSNLFLPLQPRFLADVERLHLFDVQNWVDYYSPGEHEIKPLPGYRYVAVVNLTPVADLTIVGAKYPLKPWRAGYPYAWASNEFLGKQPFTVSWTTGQVAIIYSRDRRGQKLDNLEHHHHHH | not failed |
| PRPDKCPCEVYHLMKNCWETEASFRPTFENLIPILKTVHEKYQGQAPSVFSVC | failed |
| MSSRSHARPEAVTRIASLAECGETVACMACARYPSCLAHLRLRMKRHFSMLRDFQLADWFTLANAFCGTGAVFAAMRFLQEEHRGDLLLGMALIPLAFVFDALDGHVARWRKASSTLGRELDSLADVISFGVAPAALGYACGMRGGWDWLVLSYFVCCGVSRLARYNVTAEEIAGEADKVPYFEGTPIPTSLLLVILLAVAASIGHIGETLWWGQWQLGPWQFHPLVLLFAVSGSLMISKTLRIPKL | failed |
| MRKVLSFSAFLIIGLLLSQYLPLLAGEGYATVKIVSNILLYICLSFIMINVGREFEVDKTRWRSYAGDYFIAMATAAMPWFLIAIYYVFVLLPPEFWNSWEAWKENLLLSRFAAPTSAGILFTMLAAIGLKSSWIYKKIQVLAIFDDLDTILLMIPLQIMMIGLRWQLIVVVFIVFLLLSLGWKQLGRYNWRQDWKAIMGYSVLVFVATQAVYYFSKQLYGEEGSIHIEVLLPAFVLGMIMKHKEIDTPVEHKVSTGVSFLFMFLVGMSMPHFIGVNFAETHAGTHSVTGSQEMMSWGMIALHVLIVSLLSNIGKLFPVFFYRDRKFSERLALSIGMFTRGEVGAGVIFIALGYNLGGPALVISVLTIVLNLILTGIFVLWVKKLALRSYTT | failed |
| MKNIVPPADIILNMLNEKPGADLDLLDFYKGYIRRASIEPSYSEEGFDKGKHINEDLRQEIEIAFLKGLVSLRHNICKKGSTVLIIVPSKSWFDLEHHHHHH | failed |
| MAWNQPGNNGQDRDPWGSSKPGGNSEGNGNKGGRDQGPPDLDDIFRKLSKKLGGLGGGKGTGSGGGSSSQGPRPQLGGRVVTIAAAAIVIIWAASGFYTIKEAERGVVTRFGKFSHLVEPGLNWKPTFIDEVKPVNVEAVRELAASGVMLTSDENVVRVEMNVQYRVTNPEKYLYSVTSPDDSLRQATDSALRGVIGKYTMDRILTEGRTVIRSDTQRELEETIRPYDMGITLLDVNFQAARPPEEVKAAFDDAIAARENEQQYIREAEAYTNEVQPRANGQAQRILEEARAYKAQTILEAQGEVARFAKLLPEYKAAPEITRERLYIETMEKVLGNTRKVLVNDKGGNLMVLPLDQMLKGGNAPAAKSDNGASNLLRLPPASSSTTSGASNTSSTSQGDIMDQRRANAQRNDYQRQGE | failed |
| MEIRMSKSSSKPVLVTCGLPYANGKAHIGHLRTYVPADIYARSLKKEGREVTFVCGSDTHGTPIVVNAEELGITPTELVEIYHKHFDETFKQLGIYFDAFGTTDDPENHNRTHDIVSRLIEKGYVYPKIIEIAYCPACNRFLPDRYVEGACPHCGETARGDECDQGCGKHLEPGELQNPVCTICGGPAEYRQQEHFFFKLSEFSNYLMDYLSKDLGGTTNAINYARGWVKQGLTDWCITRNLEWGVKFPGHEDLVVYVWVDAPIGYIAFTEEWAAQAGDSWEKFWKGDGEIVHFIGGDITYHHCIFWPAMLKGADYSVPTAVVASGMVKIEDRKFSKTRGYVVWVGEDYLDHGFHPDLLRYYLASYTSHTKELNFSWRVLQEKINAELVAVLGNFLYRTMLFAFKNYGEVPEGEVEPEIRKEIEKALVEVKAAMEEYEFKKAVDSAMALASFGNTYFQSHEPWKLIKEDRDACGQVVYNCLHLAKALSLIFEPVIPQTMEKAWKGLGHESDIHAALYEETLVPLKAGTKLAKPEILFTKLEDDRIGEMEEIANQRVAAANAKRNGVKGGEKEPSKSEGMGPSEASKASEKTVDVATAEEKVQVETLPVIDYEDFAKLDIRVGKVLLVEPVKKSKKLLRIEVDIGEEKPRQLVAGMASYYTPEELVGKSVIVLANLKPAKLCGVESNGMMLAADDGGAIVAALMPDKEIKSGSRIR | failed |
| MKVLFLTANEFEDVELIYPYHRLKEEGHEVYIASFERGTITGKHGYSVKVDLTFDKVNPEEFDALVLPGGRAPERVRLNEKAVSIARKMFSEGKPVASICHGPQILISAGVLRGRKGTSYPGIKDDMINAGVEWVDAEVVVDGNWVSSRVPADLYAWMREFVKLLK | not failed |
| MLKERILSAIAMIIAVLAGIFLLSPLPFTLILAAVITAAIWEWAQFAGFKRSLSRAIITFVTICLFILLIFANTHYIRAGRFLTDQTIPLLFISCCWWLIAFGLVISYPKSASLWSKSITAKFIFGFCTLIPFFIAILALRFNNYAFNQFQGAYLLLYVCLLVWCADSGAYFFGRAFGKRKLAAKVSPSKSWEGALGGLITSCVMALLFIKLTPNNIFGREFETLPFIIVSVATVAVSSLGDLAESMFKRQANIKDSSNLIPGHGGILDRIDSLTAAIPFFATLFFFVL | failed |
| MAYTDPAQRNQVTVLQVGYSRQEEGDESAMRANCTCTLVRCRDGTNIIVDTLTAWDGDHLRSLLGQQGLGVDDIHVVVCSHGHSDHIGCNYLFQKARMHLVGACASHHDLYMDHLGSGNPDEQLALDSNAEVVVRRSPGHTLSCVSVLVENSQLGGRVGITGDLFERREDIDDENIWMDAGSENEKVQREERSKMAQLCEFIIPGHGPMFSVTQSMRCKLKEDATSNT | failed |
| LAYQPGKLLVRGDTPLFKIERLLGIDLDHIEAETLAGLIYETLKRVPEEEEQMEVEGLRIIIKKMKGPKIVLAKVLKLD | not failed |
| MDILKSEILRKRQLVEDRNLLVENKKYFKRSELAKKEEEAYFERCGYKIQPKEEDQKPLTSSNPVLELELAEEKLPMTLSRQEVIRRLRERGEPIRLFGETDYDAFQRLRKIEILTPEVNKGLRNDLKAALDKIDQQYLNEIVGGQEPGEEDTQNDLKVHEENTTIEELEALGESLGKGDDHKDMDIITKFLKFLLGVWAKELNAREDYVKRSVQGKLNSATQKQTESYLRPLFRKLRKRNLPADIKESITDIIKFMLQREYVKANDAYLQMAIGNAPWPIGVTMVGIHARTGREKIFSKHVAHVLNDETQRKYIQGLKRLMTICQKHFPTDPSKCVEYNAL | failed |
| MPKFDVSKSDLERLIGRSFSIEEWEDLVLYAKCELDDVWEENGKVYFKLDSKDTNRPDLWSAEGVARQIKWALGIEKGLPKYEVKKSNVTVYVDEKLKDIRPYGVYAIVEGLRLDEDSLSQMIQLQEKIALTFGRRRREVAIGIFDFDKIKPPIYYKAAEKTEKFAPLGYKEEMTLEEILEKHEKGREYGHLIKDKQFYPLLIDSEGNVLSMPPIINSEFTGRVTTDTKNVFIDVTGWKLEKVMLALNVMVTALAERGGKIRSVRVVYKDFEIETPDLTPKEFEVELDYIRKLSGLELNDGEIKELLEKMMYEVEISRGRAKLKYPAFRDDIMHARDILEDVLIAYGYNNIEPEEPKLAVQGRGDPFKDFEDAIRDLMVGFGLQEVMTFNLTNKEVQFKKMNIPEEEIVEIANPISQRWSALRKWILPSLMEFLSNNTHEEYPQRIFEVGLATLIDESRETKTVSEPKLAVALAGTGYTFTNAKEILDALMRHLGFEYEIEEVEHGSFIPGRAGKIIVNGRDIGIIGEVHPQVLENWNIEVPVVAFEIFLRPLYRH | not failed |
| MRQIRYAYAVAVDALYTFLADDGWAIASHIALSTLMALFPFLIVLTSLAGFVGSRELADSAAELLLDVWPAQVASTLSGEIHDVLTTTRGGVLTIGLVLALYFASNGVESLRVGLNRAYAVIEPRPWYLLRLESIGYTLVAAFTALAMGFLIVLGPLIVATARHYVPLLVHDNEPLLTFARYGIAITALTVALFLLHAYLPAGRRSFRQILPGIVFTITASLISGMTFGMYLARFANNYVSMYAGLASVIIALVFLYFIAAIFVYGGELNAAIIKSRLPEGTTLQEAQLRAPGAKPV | not failed |
